Measured values: article PMC3866193

Tests used:
[1] = biological target: Dylight488-labeled GluA2 amino terminal domain; test: AUC; FDS-SV, dilution series of Dylight488-GluA2 ATD, two different runs, global best-fit single component, single class of sites model (Figure 5A); dimer to monomers
[2] = biological target: Dylight488-labeled GluA2 amino terminal domain; test: AUC; fluorescence-detected sedimentation velocity (FDS-SV), dilution series of labeled protein (Figure 3); 50,000 rpm, 20°C; 20 mM Na phosphate pH 7.5, 150 mM NaCl, 1 mM EDTA, 0.1 mg/mL BSA carrier; sw isotherm fitted with a monomer-dimer model; dimer to monomers
[3] = biological target: Alexa Fluor 568-labeled GluA2 amino terminal domain; test: FRET or BRET; kinetic FRET in a spectrofluorometer, 20°C, excitation 495 nm, emission 603 nm; 50 nM donor-labeled and 50 nM AF568-labeled GluA2 ATD pre-equilibrated (30 min DL488, 60 min FAM), then 1 µM unlabeled GluA2 ATD added; decay fitted with exponential functions
[4] = biological target: Dylight488-labeled GluA2 amino terminal domain; test: AUC; FDS-SV, titration series: constant low concentration of labeled protein (1 nM for FAM-GluA2 ATD) with unlabeled GluA2 ATD at a range of concentrations (Figure S1); 20°C, pH 7.5, 0.1 mg/mL BSA; sw isotherm, monomer-dimer model; dimer to monomers
[5] = biological target: EGFP-GluA2 ATD fusion protein; test: as above
[6] = biological target: FAM (5,6-carboxyfluorescein)-labeled GluA2 amino terminal domain; test: as above
[7] = biological target: GluA2 ATD ATD (Rattus norvegicus) (UniProt P19491); test: sedimentation velocity AUC (far-UV absorbance); conditions: cited from earlier work
[8] = biological target: FAM (5,6-carboxyfluorescein)-labeled GluA2 amino terminal domain; test: AUC; FDS-SV, dilution series of FAM-GluA2 ATD at labeling ratio 1.05 (Figure 4C/D); 20°C, pH 7.5, 0.1 mg/mL BSA; monomer-dimer model; dimer to monomers
[9] = biological target: FAM (5,6-carboxyfluorescein)-labeled GluA2 amino terminal domain; test: AUC; FDS-SV, dilution series of FAM-GluA2 ATD at labeling ratio 2.26 (Figure 4E/F); 20°C, pH 7.5, 0.1 mg/mL BSA; monomer-dimer model; dimer to monomers
[10] = biological target: FAM (5,6-carboxyfluorescein)-labeled GluA2 amino terminal domain; test: AUC; FDS-SV, dilution series of FAM-GluA2 ATD at labeling ratio 0.68 (Figure 4A/B), down to very low concentrations; 20°C, pH 7.5, 0.1 mg/mL BSA; monomer-dimer model; dimer to monomers
[11] = biological target: FAM (5,6-carboxyfluorescein)-labeled GluA2 amino terminal domain; test: AUC; FDS-SV, dilution series of FAM-GluA2 ATD at labeling ratio 1.32, single-component fit excluding the two lowest concentrations and freely adjusting the s-values (Figure 5A, thin blue line); dimer to monomers
[12] = biological target: FAM (5,6-carboxyfluorescein)-labeled GluA2 amino terminal domain; test: AUC; fluorescence-detected sedimentation velocity (FDS-SV), dilution series of labeled protein (Figure 3); 50,000 rpm, 20°C; 20 mM Na phosphate pH 7.5, 150 mM NaCl, 1 mM EDTA, 0.1 mg/mL BSA carrier; sw isotherm fitted with a monomer-dimer model; dimer to monomers
[13] = biological target: FAM (5,6-carboxyfluorescein)-labeled GluA2 amino terminal domain; test: AUC; FDS-SV, dilution series of FAM-GluA2 ATD at labeling ratio 1.32 extended to lower concentrations (Figure 5); all fits with s-values constrained to those of Dylight488-GluA2 ATD: single-component fit, and three-component fit with populations of different affinity; dimer to monomers

EGFP-GluA2 ATD fusion protein, sequence (P23819 25-404): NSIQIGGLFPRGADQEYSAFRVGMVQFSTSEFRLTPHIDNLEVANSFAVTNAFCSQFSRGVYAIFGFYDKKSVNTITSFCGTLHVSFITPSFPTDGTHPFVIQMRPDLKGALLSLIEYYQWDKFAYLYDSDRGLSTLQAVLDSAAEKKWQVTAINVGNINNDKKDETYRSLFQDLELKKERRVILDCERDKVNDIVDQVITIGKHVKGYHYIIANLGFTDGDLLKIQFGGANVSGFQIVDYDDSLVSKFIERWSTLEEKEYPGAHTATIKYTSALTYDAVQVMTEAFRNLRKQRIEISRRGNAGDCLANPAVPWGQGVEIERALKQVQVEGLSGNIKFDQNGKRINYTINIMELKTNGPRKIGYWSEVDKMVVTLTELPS
GluA2 ATD ATD, sequence (P19491 22-400): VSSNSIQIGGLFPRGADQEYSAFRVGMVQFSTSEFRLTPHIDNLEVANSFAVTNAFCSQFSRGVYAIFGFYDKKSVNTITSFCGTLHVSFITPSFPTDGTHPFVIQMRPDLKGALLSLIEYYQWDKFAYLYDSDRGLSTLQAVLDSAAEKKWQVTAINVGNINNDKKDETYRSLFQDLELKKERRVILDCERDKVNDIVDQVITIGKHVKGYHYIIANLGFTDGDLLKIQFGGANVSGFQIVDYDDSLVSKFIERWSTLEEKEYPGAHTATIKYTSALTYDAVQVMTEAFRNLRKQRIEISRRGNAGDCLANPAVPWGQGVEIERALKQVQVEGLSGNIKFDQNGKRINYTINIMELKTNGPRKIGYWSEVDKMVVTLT

Substance: Dylight488-labeled GluA2 amino terminal domain (domain or fragment)
- Kd [1]: 19.4 nM
- Kd [2]: 20.5 nM
- stoichiometry N [2]: 2
- half life of the donor/acceptor heterodimer (single-exponential decay) [3]: 2.72 min
- time constant of the decay (single exponential fit, trace shown) [3]: 169 s

Substance: GluA2 amino terminal domain (GluA2 ATD), unlabeled (domain or fragment)
- Kd [4]: 16.5 nM
- Kd [5]: 22 nM
- Kd [6]: 9 nM

Substance: GluA2 ATD ATD (from UniProt P19491)
- Kd [7]: 9.4 nM

Substance: FAM (5,6-carboxyfluorescein)-labeled GluA2 amino terminal domain (domain or fragment)
- Kd [8]: 2.6 nM
- Kd [9]: 4.7 nM
- Kd [10]: 3.1 nM
- Kd [11]: 4.6 nM
- Kd [12]: 2.3 nM
- stoichiometry N [12]: 2
- life-time of the donor/acceptor heterodimer, fast component [3]: 95 s
- life-time of the donor/acceptor heterodimer, slow component [3]: 723 s
- time constant of the decay, fast component (double exponential fit, trace shown) [3]: 98 s
- time constant of the decay, slow component (double exponential fit, trace shown) [3]: 640 s
- KD of the high-affinity population (three-component fit) [13]: 1.8 nM
- KD of the low-affinity population (three-component fit) [13]: 24000 nM
- Kd [13]: 6.3 nM
